Assay results from patent publication US20220348923, “CA-IX APTAMERS AND DIAGNOSTIC AND THERAPEUTIC USES THEREOF” (BRACCO IMAGING S.P.A., published 2022).

B1: SAM-2.T1 (ssRNA)
RNA: UCGAAUGAACCAAGGUUCCUCGGC
modifications: 2'-F pyrimidines
B2: SAM-1.T1 (ssRNA)
RNA: UUCGUGCCGCUGAGUGCGUACGGGC
modifications: 2'-F pyrimidines

Biological target: Carbonic Anhydrase IX (CA-IX) (Homo sapiens, UniProt Q16790 Q16790:38-414)
Assay: RT-qPCR cell binding, 100 nM, 15 min, 37 C, acid condition

Binder | binding signal [fold over COS7-WT]
B1 | 2.4
B2 | 1.3
